The target of the assay is ApoER2 of primary neuronal culture from embryonic day 17 mice (mouse) (UniProt Q924X6). In words: cell-based or functional assay.

The values that follow come from patent US20190169246A1.

Chain of ApoER2 of primary neuronal culture from embryonic day 17 mice (mouse) (Q924X6 29-996): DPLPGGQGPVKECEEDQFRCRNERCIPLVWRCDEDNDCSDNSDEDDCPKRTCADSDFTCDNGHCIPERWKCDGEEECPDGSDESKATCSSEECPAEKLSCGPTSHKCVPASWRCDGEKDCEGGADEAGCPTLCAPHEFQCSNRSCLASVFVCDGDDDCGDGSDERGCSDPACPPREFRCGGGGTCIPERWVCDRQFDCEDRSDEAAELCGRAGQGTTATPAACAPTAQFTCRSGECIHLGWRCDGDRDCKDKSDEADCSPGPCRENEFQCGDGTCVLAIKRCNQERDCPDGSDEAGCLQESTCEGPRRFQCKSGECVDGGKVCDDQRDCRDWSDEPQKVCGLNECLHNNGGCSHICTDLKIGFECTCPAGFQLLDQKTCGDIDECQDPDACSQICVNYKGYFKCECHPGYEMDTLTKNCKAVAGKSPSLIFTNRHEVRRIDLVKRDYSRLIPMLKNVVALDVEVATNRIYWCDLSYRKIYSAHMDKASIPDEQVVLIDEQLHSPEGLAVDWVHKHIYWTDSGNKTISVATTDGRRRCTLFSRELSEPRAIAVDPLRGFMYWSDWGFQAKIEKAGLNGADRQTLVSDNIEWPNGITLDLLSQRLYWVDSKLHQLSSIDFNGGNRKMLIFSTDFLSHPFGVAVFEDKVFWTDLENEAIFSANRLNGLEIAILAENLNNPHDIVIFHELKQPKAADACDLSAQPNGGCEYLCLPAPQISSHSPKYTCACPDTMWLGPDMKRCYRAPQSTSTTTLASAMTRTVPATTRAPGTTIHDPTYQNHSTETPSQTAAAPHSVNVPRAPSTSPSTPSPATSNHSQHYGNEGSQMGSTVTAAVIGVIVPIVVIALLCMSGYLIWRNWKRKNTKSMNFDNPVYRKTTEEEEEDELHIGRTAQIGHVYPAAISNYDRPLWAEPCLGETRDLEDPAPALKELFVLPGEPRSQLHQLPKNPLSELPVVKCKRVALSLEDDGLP

With “Recombinant, human Reelin protein, R3 fragment conjugated to the R5 fragment (Reelin protein fragment R3+R5) (from UniProt P78509 1-2270) (ligand)”, the levels of phosphorylated ERK to total ERK, primary neurons, 60 minutes (ratio pERK/total ERK) was 2.22.

“Recombinant, human Reelin protein, R3 fragment conjugated to the R6 fragment (Reelin protein fragment R3+R6) (from UniProt P78509 1-2618) (ligand)”: the levels of phosphorylated ERK to total ERK, primary neurons, 60 minutes (ratio pERK/total ERK) came to 2.

For “full length Reelin consisting of the full length sequence and all of the naturally occurring fragments (ligand)”, the levels of phosphorylated ERK to total ERK, primary neurons, 60 minutes (ratio pERK/total ERK) worked out at 2.5.

In the case of “mouse Reelin N terminal through repeat R2 (from UniProt Q60841 27-1221) (ligand)”, the levels of phosphorylated ERK to total ERK, primary neurons, 60 minutes (ratio pERK/total ERK) worked out at 0.53.

For “mouse Reelin repeats R3 through 6 (from UniProt Q60841 1222-2661) (ligand)”, the levels of phosphorylated ERK to total ERK, primary neurons, 60 minutes (ratio pERK/total ERK) stood at 1.15.
